Experimental data reported in patent publication US20130133089A1 (MEDICAL RESEARCH INFRASTRUCTURE AND HEALTH SERVICES FUND OF …, published 2013).
One block for each molecule: values may come before it.

Legend:
[1] = target: Recombinant human leptin binding domain (hLBD) (human) (UniProt P48357); assay: competitive plate binding assay: immobilized hLBD, biotinylated mouse leptin as ligand, mutein as competitor
[2] = target: long form of human leptin receptor (hLEPR) on BAF/3 or H-49 (HEK-293) cells (human) (UniProt P48357); assay: cell-based or functional assay
Sequence of long form of human leptin receptor (hLEPR) on BAF/3 or H-49 (HEK-293) cells (human) (P48357 22-1165): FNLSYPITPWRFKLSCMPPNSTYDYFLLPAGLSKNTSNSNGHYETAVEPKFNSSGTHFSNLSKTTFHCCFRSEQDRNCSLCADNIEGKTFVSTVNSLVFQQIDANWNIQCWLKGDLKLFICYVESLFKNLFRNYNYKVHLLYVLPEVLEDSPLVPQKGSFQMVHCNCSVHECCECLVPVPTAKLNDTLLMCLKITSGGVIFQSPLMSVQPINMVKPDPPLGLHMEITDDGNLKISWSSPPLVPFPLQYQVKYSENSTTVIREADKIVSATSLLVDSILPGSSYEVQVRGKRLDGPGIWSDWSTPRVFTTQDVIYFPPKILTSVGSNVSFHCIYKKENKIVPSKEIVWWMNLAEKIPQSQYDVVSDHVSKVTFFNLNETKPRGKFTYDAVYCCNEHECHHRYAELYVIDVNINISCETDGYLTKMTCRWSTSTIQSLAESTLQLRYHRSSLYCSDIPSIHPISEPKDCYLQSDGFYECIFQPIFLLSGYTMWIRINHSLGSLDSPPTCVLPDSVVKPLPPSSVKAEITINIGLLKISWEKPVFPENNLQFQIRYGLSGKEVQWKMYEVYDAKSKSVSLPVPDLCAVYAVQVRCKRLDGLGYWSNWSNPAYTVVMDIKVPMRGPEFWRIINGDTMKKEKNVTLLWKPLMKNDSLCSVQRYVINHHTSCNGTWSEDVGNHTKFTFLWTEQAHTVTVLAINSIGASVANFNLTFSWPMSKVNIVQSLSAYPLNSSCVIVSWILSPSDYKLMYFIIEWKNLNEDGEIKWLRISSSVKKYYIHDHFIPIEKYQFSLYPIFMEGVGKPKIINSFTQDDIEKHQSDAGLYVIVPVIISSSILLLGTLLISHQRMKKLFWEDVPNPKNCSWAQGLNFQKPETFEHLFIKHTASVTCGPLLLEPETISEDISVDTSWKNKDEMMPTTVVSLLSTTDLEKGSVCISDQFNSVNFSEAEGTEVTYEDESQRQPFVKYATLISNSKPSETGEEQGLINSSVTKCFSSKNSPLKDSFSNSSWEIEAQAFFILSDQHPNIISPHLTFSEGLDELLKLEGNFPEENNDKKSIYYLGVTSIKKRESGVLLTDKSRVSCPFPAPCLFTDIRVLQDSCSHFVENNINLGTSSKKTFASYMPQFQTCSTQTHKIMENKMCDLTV

[3] = target: T1, Recombinant human leptin binding domain (hLBD) (human, UniProt P48357 428-635, biotinylated with Sulfo-NHS-LC-Biotin in the yeast display assays; not labelled when immobilized in the plate binding assay); assay: competitive plate binding assay on immobilized hLBD (FIG. 12C)
T1 construct: CRH2 sub-domain of the leptin receptor; Prepared in the applicants' laboratory; also called soluble human leptin receptor; CHR2
T1 sequence (looked up): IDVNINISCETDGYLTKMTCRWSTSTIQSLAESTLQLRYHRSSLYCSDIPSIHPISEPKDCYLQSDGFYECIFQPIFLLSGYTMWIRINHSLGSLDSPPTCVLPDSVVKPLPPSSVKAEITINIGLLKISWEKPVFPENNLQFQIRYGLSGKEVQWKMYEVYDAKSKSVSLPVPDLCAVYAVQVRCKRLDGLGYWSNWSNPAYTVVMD
Method: (§1) Biotinylated mouse leptin served as the ligand in all competitive experiments and the respective mouse leptin or mouse or human leptin antagonist muteins as competitors. The hLBD was used as the receptor source. Polystyrene 96-well microtiter plates were coated overnight at 4° C. with 100 μl of 40 μM hLBD in PBS pH 7.4. Wells were then washed one time with PBST (PBS containing 0.05 Tween 20) and blocked with PBS containing 3% skim milk for two hours in room temperature. All further incubations were carried out at room temperature. Wells were washed one time with PBST and incubated with different concentrations of un-labeled leptins (50 μl/well) for 30 min and then 50 μl of 62.5 μM of biotinylated mouse leptin were added to each well for another two hours. Then the wells were washed three times with PBST and incubated with 1:30,000 streptavidin-HRP in PBS containing 1 Tween 20 for one hour. Subsequently the wells were washed three times with PBST and the reaction was quantified in 450 nm by microplate reader ELISA Plate Reader ELx808—Bio-Tek Instrument Inc. (Winooski, Vt., USA) using TMB according to manufacturer's instructions.

[4] = target: T1, Recombinant human leptin binding domain …; assay: competitive plate binding assay on immobilized hLBD (FIG. 12D)
Method: as §1

[5] = target: T1, Recombinant human leptin binding domain …; assay: competitive plate binding assay on immobilized hLBD, representative experiment (FIG. 7D)
Method: as §1

[6] = target: T1, Recombinant human leptin binding domain …; assay: competitive plate binding assay on immobilized hLBD
Method: as §1

B1: human leptin super antagonist (SHLA), human leptin D23L/L39A/D40A/F41A (ligand)
chain: VPIQKVQDDTKTLIKTIVTRINLISHTQSVSSKQKVTGAAAIPGLHPILTLSKMDQTLAVYQQILTSMPSQNVIQISNDLENLRDLLHVLAFSKSCHLPWASGLETLDSLGGVLEASGYSTEVVALSRLQGSLQDMLWQLDLSPGC
notes: also called super active human leptin antagonist
fold increase in the affinity due to D23L mutation (against HLA) [3]: 44 fold

B2: pegylated human leptin super antagonist (PEG-SHLA) (ligand)
chain: VPIQKVQDDTKTLIKTIVTRINLISHTQSVSSKQKVTGAAAIPGLHPILTLSKMDQTLAVYQQILTSMPSQNVIQISNDLENLRDLLHVLAFSKSCHLPWASGLETLDSLGGVLEASGYSTEVVALSRLQGSLQDMLWQLDLSPGC
modifications: mPEG-propionyl-ALD 20 kDa, preferentially on the N-terminal amino group
fold increase in the affinity due to D23L mutation (against PEG-HLA) [4]: 80 fold

B4: pegylated mouse leptin antagonist (PEG-MLA) (ligand)
chain: AVPIQKVQDDTKTLIKTIVTRINDISHTQSVSAKQRVTGAAAIPGLHPILSLSKMDQTLAVYQQVLTSLPSQNVLQIANDLENLRDLLHLLAFSKSCSLPQTSGLQKPESLDGVLEASLYSTEVVALSRLQGSLQDILQQLDVSPEC
modifications: pegylated (method previously described for MLA; 20 kDa PEG, site not restated here)
notes: mature; also called pegylated-MLA
fold reduction in affinity by pegylation, as compared to MLA [6]: 6.3 fold

The next lines start with the values.

fold increase in affinity as compared to the WT mouse leptin [1]: 0.83 fold | BAF/3 bioassay: fold increase in bioactivity as compared to the WT mouse leptin [2]: 0.5 fold | Luciferase bioassay: fold increase in bioactivity as compared to the WT mouse leptin [2]: 0.3 fold
Molecule: recombinant mouse leptin mutein H7 (K11R, Q34R, T37A, F92C, S97Y, I136V), agonist (from UniProt P41160 22-167) (ligand)

fold reduction in affinity as compared to the non-pegylated SMLA [5]: 6.2 fold
B3: pegylated superactive mouse leptin antagonist (PEG-SMLA) (ligand)
chain: VPIQKVQDDTKTLIKTLVTRINLISHTQSVSAKQRVTGAAAIPGLHPILSLSKMDQTLAVYQQVLTSLPSQNVLQIANDLENLRDLLHLLAFSKSCSLPQTSGLQKPESLDGVLEASLYSTEVVALSRLQGSLQDILQQVDLSPGC
modifications: mPEG-propionyl-ALD 20 kDa, preferentially on the N-terminal amino group (85% monopegylated, ~9% double pegylated)
notes: also called pegylated SMLA; superANT
